{"source": "the DeepSol protein solubility set", "experiment": "soluble on expression in E. coli; label from the status in PepcDB or PDB records"}
{"sequence": "MALAPHAVHRLYEYRKSISTKPFGARGKKLIRCPLCLLGEQFCTCSLRKQLTTQASFLLIMYNDEVLKPTNSGRLIADLIPDTHAFLWSRTDPAPELLALLSSDHYQPFLVFPAQYADQGQTVLSQVPMATLAKGKRPLLIMLDGSWREAIKMFRKSPYLQGLPILSFDPDTLATYALRKGSHDFQLGTAEVASLALAAMGEEANGKALTAWFDLFVESSLLGRNRRCREDILPISDFTNAFEVAYTAATP", "values": [{"measurement": "soluble on expression in E. coli", "value": "not soluble"}]}
{"sequence": "MGSDKIHHHHHHMVSKYHEIFLNIIQQIEDGQLKRGDKLPSIRQLSQDFHCSKDTVQKALSELKYQKYIYPILKSGYYVFEDNHEEEILPPISPSNYHNIAYEDFRTCMNETLVGREDYLFNYYHQEEGLEELTQSLQALFVDEAIYSKKENIVVTSGSQQALYILSQMTFPNQKEIILLEQPTYHRMNTLVKSQNLPYLTIERGFDGLDFNRLEEIFKQEKIKFFYTIPRLSNPLGLSYSHKEKQTLVELAHKYDVYIIEDDYMADFDRASNVSLHYLDTNDRIIYLKSFSMSLFPALRLGSLILPKKLLKKFLDYKNLIDYDTNLIMQKALSLYIDNGMFAKNKKRLKQMYYQKTSELAKEFSTFTLKLPHHIFQDSLILQLPTKVNLALLKYRLNSPNFLEKNYISTCPYHFIQLQAGENWQNLLTIFE", "values": [{"measurement": "soluble on expression in E. coli", "value": "not soluble"}]}
{"sequence": "MATGVIRGAELSPSYIIEEILGLYQNIVVLSNEEIVYGLSDRNRELFQELEYLVSLEVEDSVVQDILQKKELEPAFTEIKRFRNLYTVRLETEHAKEILSSDSPWASLEMFSFYGNYLKLVRTEYEGLRLSSGDTVFFLGSGPLPLTLIVFFRLYGVKSTGIEKDSFRANLSKKVLEKLGLSSVIKIVNGNHFSLSRKDLSLSPDTGVKALMIAAQAEPKKEIFEHLLEVMPIGGRISCRIYEKGLRKLLSGNCLFDLPEGFVEQERVQPQPPVYNTVIFFEKKRLEHHHHHH", "values": [{"measurement": "soluble on expression in E. coli", "value": "not soluble"}]}
{"sequence": "MRILHTSDWHLGKNLEGYSRMDEQEEFLEDFIKIVEENNIDMVVIAGDIYDTYNPPARAEKMFYSTLKKISQNGERVTLVIAGNHDNPERLVAAGPLARDHGIIMVGTPKSVVPTGEYGKHKVLSSKEGFIEIEVNGERASIITLPYPSEKRLNEVLYEEMDSEEEKVKSYGDRIKQLFDRLSENFRDDTINMVVSHLFAMGSEEGGSERNVQLGGSFIVNGDCFPKNAQYVALGHVHKPQLVPGTHKIARYSGSPIQYNKKEINFKKKCFLVNIEAGKEPIVDEIEFKVYKPIEVWKCTGVEEAIKKCEENKDRDCWVYLEIVTDKYIGEEEMKAMKSLKKDILEILPKVSVDNEIIDMASFKERPFEEIFKEFYKKERKVEPDNEVVDLLLSIINGGEAEDETHKS", "values": [{"measurement": "soluble on expression in E. coli", "value": "not soluble"}]}
{"sequence": "MGSDKIHHHHHHMKALAIAATGMNAQQTNLEVIANNIANINTTGYKRARAEFSDLLYQVDRTQGVPNRSNASLVPEGVSIGLGVKTTAVRNVHTQGELTSTGNSFDMALTGRGWFQIEGADGGTLYTRAGAFNTNATGQLVTVDGANVIPAITVPTDAVEVIVNKTGQVFARIDGQTNLQTLGQLQIVNFANEAGLAPLGDNLFQETTASGPANAGVPGDPGFATIQQGYLEASNVDPVKEITELISAQRAYEMNSKVIQAADDMASVVSKNIR", "values": [{"measurement": "soluble on expression in E. coli", "value": "not soluble"}]}
{"sequence": "MANEQVLTAEQVLEKASQYLVDEDIELVARAYEYARDAHSEQYRKSGEPYIIHPIQVAGVLVDLHMDPATVSAGFLHDVVEDTEITLEDIEREFNKEIAMLVDGVTKLGKIKYKSHEQQQAENHRKMFIAMAQDIRVILIKLADRLHNMRTLKHLPQEKQRRIANETLEIFAPLAHRLGISTIKWELEDTSLRYLNPQQYYRIVNLMKRKRAEREEYLDEVMTGIREKLDEVAIQPEISGRPKHIYSIYRKMALQNKQFNEIYDLLAVRVVVNSIKDCYAVLGIIHTCWKPMPGRFKDYIAMPKANLYQSLHTTVIGPKGDPLEVQIRTKEMHEIAEFGIAAHWAYKEGKTAETTGTLEKKLTWFRQILEWQNEASNAEEFMESLKIDLFSDMVFVFTPKGDVMELPLGSVPIDFAYRVYSEIGNKTIGAKVNGKMVTLDYKLKTGDIIEILTSKHSYGPSQDWVKLAQTSHAKNKIRQFFKKQRRDENIEKGRELVEKEVRSLEYEMKEVLAPDNLKRVAEKFNFANEEDMFAAVGYNGITASQIVTRLTDKFRKQREEEEIVEVKEVRKPMKIRKWDSGVKVSGADNLLIRLSKCCNPVPGDDIVGYITKGRGVSIHRRDCVNVHTEEAIERLLEVEWEGSPEKEIEYNVDIEISGYDRRGLLNEVLQAVTETKTYISAVSGRSDRNKMATINMSISIRNLQHLKKVVERIKRVPEIYAVRRMMH", "values": [{"measurement": "soluble on expression in E. coli", "value": "not soluble"}]}
{"sequence": "MTIKKYKTALSGMFPEEIQSFCGLKEKFRAQQIFHWIASGVNSFDEMTNLSFDMRSKLKNDFSLFSTKIKEALKDKDGTIKLAVELYDGSVIETVLLTDKAKRKTACVSCQAGCPMKCAFCKTGQIGFLRNLSASEIVEQFLHLEREAGSLDNIVFMGMGEPMLNLPEIDKAINILAHPKGRNLSKRRITISTSGLCKGIYEMADKGPEVRLAVSLTTADETLRSELMPITKTNSLDELKQAIKYFNSKSNKRVTLELALMKGLNTDKKAAQEVIEFAKGLECFINLIPWNPVEGLNFKTPSETEVRTFETYLKKAGLNISTRQKRGQSIGGACGQLGSTAARSNRF", "values": [{"measurement": "soluble on expression in E. coli", "value": "not soluble"}]}
{"sequence": "MGKVYVFDHPLIQHKLTYIRDKNTGTKEFRELVDEVATLMAFEITRDLPLEEVEIETPVSKARAKVIAGKKLGVIPILRAGIGMVDGILKLIPAAKVGHIGLYRDPQTLKPVEYYVKLPSDVEERDFIIVDPMLATGGSAVAAIDALKKRGAKSIKFMCLIAAPEGVKAVETAHPDVDIYIAALDERLNDHGYIVPGLGDAGDRLFGTK", "values": [{"measurement": "soluble on expression in E. coli", "value": "soluble"}]}
{"sequence": "MGSDKIHHHHHHLMCCASRSVPRWPDNIFTEFLSPKRALGPEPCRPRMTPFWRAGQLCPSVQDRRVFSCEPPCAVFPRWRTMRRAYLLKQEVLPMKISVIGASRGIGRKVVEEALERGHSVTGMARSATSLGIDHAEFTAIDGDATNATDVTQAIDGADAVILTLGVPKDARVLKSTTLFSDATRTLITAMEEAGIKRLLTVTGFGAGDSKEKLSTPERLTQKAFLGRAYADKDLQEKLIRDSDLDWTIARPGILSDNRKSNAYKVLVEKETWRNGLINRSDVADFLVTAAEDESHIHKTPALQR", "values": [{"measurement": "soluble on expression in E. coli", "value": "not soluble"}]}
{"sequence": "MNVTYLHDEDLDFLQHCSEEQLADFARLLTHNEKGKARLSSVLSHNELFKAMEGHPEQHRRNWQLIAGEFQHYGGDSIANKLRGHGKQYRAILLDVAKRLKLKADKSMSTFEIEQQLLEHFLRHTWQKMDAAHKQEFLQAVDAKVSELEELLPLLMKDRSLAKGVSHLLSTQLTRILRTHAAMSILGHGLLRGAGLGGPVGAALNGVKAMSGSAYRVTIPAVLQIACLRRMMAAVQA", "values": [{"measurement": "soluble on expression in E. coli", "value": "not soluble"}]}
{"sequence": "MRIIKFPEQISEDIIHYTFLDDIISYNCEKCRGSCCHVNNSLLLDAKTASFLKRTYLKDFIVSDDSVSLLSCGKKCWFHSELGCTINDLGLNKPLTCELYPFHIKKIQNFYIVSFTPCPTFQLNLGEGQRYKDIEDVVLRYIKTGVPVFSPSLHVSEERLKYEIEYQNNFKNTLSEYYRTKTADGTTEFKEYEKWYIYYLDFRWGSIPLSYTSSQANQFWNLYKRVCEDVYKKISYIRTDNIYFIIANQFNKTISKHFQLNFIDKE", "values": [{"measurement": "soluble on expression in E. coli", "value": "soluble"}]}
{"sequence": "MAHHHHHHMWLNDFFAMELDGRAAMDANWGVLLAAFFRGPKKYIRDAGVLGEMQASDRYKMMERAVRDEMDMEEDVSRLYNNGMYELLRWLVATAEVTASAHEVTKSFLDAAAEEARNPTTTSAPRYLEGCYESVYNARWNHVVEVPGGEGTGLEVREGEPPQSWTYRAVGRTLEKDDGVQQFGATRPVLMVLTSDKGWPYSRNTIQDLPKDVFVNCEVDRVWQIVKGDLTAWFSTDGGTDFRPERRVLIGTPGIGKLVAAGSYLLYQLLHYDLEKIQVVVHCFGGGDAYVSDKTTRAATRYGDEDMCISELRSLRGHGRNVYIIYDVAKEGTPPPRHFAPTSGWGMIAVSFPKVTNYDEWAKQLQAARIIVNCPD", "values": [{"measurement": "soluble on expression in E. coli", "value": "not soluble"}]}
{"sequence": "MVHVSGTKVKVVKKKLTKFKRHESDRYRRVAPSWRKPKGIDNRVRRRFRGMRAMPTIGHGSDRRTRFVLPNGYKKVLVQNVKDLDMLLMQSYKYIGEIGHGVSAKSRKGIVERAAQLNIKLTNGNARLRTEESE", "values": [{"measurement": "soluble on expression in E. coli", "value": "not soluble"}]}
{"sequence": "MGVVLARGAFRERSMLTLPDFPLPDARGRFGPYGGRYVPETLIPALEELEAAYREAKKDPAFLEELDHYLRQFAGRPTPLYHAKRLSEYWGGAQVFLKREDLLHTGAHKINNTLGQALLARRMGKRRVIAETGAGQHGVSVATVAALFGLECVVYMGEEDVRRQALNVFRMKLLGAEVRPVAAGSRTLKDATNEAIRDWITNVRTTFYILGSVVGPHPYPMMVRDFQSVIGEEVKRQSLELFGRLPDALIAAVGGGSNAIGLFAPFAYLPEGRPKLIGVEAAGEGLSTGRHAASIGAGKRGVLHGSYMYLLYDHDGQITPAHSVSAGLDYPGVGPEHSYYADAGVAEYASVTDEEALEGFKLLARLEGIIPALESAHAIAYAAKVVPEMDKDQVVVINLSGRGDKDVTEVMRLLGGEL", "values": [{"measurement": "soluble on expression in E. coli", "value": "soluble"}]}
{"sequence": "MSLDAMAKILLVEDSATQAVEMTMLLQAANHEVVHVANGQLGLSHLKEQAPDLVITDLEMPEINGLQLVESMRANFSHIPSILVTSHGSEELAAEALRRGAAGYVPKTRMSDLLNDTIVDVLGVIRSDASYAKLISTLKKNVFVFDLPSDPELISPLVGLLMQVSAGMELLPSIEMVRLGVAVEHSLTNAMLHGNLEIPRDKQPSHGQLAREGMINDAMKERLSQEPYKSRVTHVEATASEHAIRIVITDQGPGFDTSNVPQAGELDASSLAASADGVGQADKQGLLLIASFVDQMWFNDEGNQITLVKRCGAEGHHHHHH", "values": [{"measurement": "soluble on expression in E. coli", "value": "not soluble"}]}
{"sequence": "MSLSAMARKVKITDVKCMIVRGTWDWNLIKIETDSGLYGIGEAYWGWGVKDLVVNKMKGIIVGEDPLNVDKLYTKMLMQSAGAGAIGGVTMTAASGIEIALWDLCGRILDTPVCNLLGGRFRDRIRFYRTTQAVKNVEDTKEWRALAESARAEKWGWTAFKFQGDGIPPRADPEFKEPGHDPYARNLTHKDHRRIVTAMETVRETLGPDADFAVECHWRYDTQDVISLGKELEPVKPMWLEDPVPPDNIEAMQRVTHAINVPVCTGENLYGRQGFRKLIEMQACSGVHIDIPKSGGLMESKKISDLADLYYIWTACHNPASPVGTIASCHASAAMREFRIHELANWVDWWPDLVIREGPFWKDGYFTIQDKPGYGVELNPDVAKAHLAPGETWWGEGHHHHHH", "values": [{"measurement": "soluble on expression in E. coli", "value": "not soluble"}]}
{"sequence": "MARHKCQDCGKTFDLKRYLTKHELRMHKNVVKSKNDRSASDPLKCSMCDKVFPRLSHLQRHQMTHLNVRNYSCTFCEEKFVQKSHLTRHVSRKHSNAPGVEVDWTACDKCGQLFKTTYEMRIHRQTYHELHKCKQCQEVIEAGSDGLRKHHMQCRKYSNVCDECGASFSRPADLVSHETSCLKKFAFVCKPCDSYFRQRVQLDRHIKKAHFHPTKCSKCEQISDTPVQNSRHSLECVKVIICGYCSLKNPDKNHVATVHWHRLKRAVSKSVTIRHKLKDAPIADKDVPSSSGQSSLEEEILDDSEDDLEDTGEGLSNREQFKNRDIKRENNLEEVKSSTDNRDEEDSLFNFPDTSTSQLDFCSTAFTEDDSFPGDYVTLSICPKNTDLSFDLRDRLPPELSELFPELEATSIVLLNKSIRCRMTVRVPVCIPKSSTQEAEMRKWLDMTVVLKDD", "values": [{"measurement": "soluble on expression in E. coli", "value": "not soluble"}]}
{"sequence": "GPGSMPQPSALQSARSFLGTVAEDSVRCDRGLDSVPHNEAGLRCLAADGNWSAVAELAERLSAAATEETAEGLSRRLQFILVQVTANFHMQRYNVAKKLVESLGDLNSERYIDPKTSESTVPFSLRFISAIIPLYIGTKMDSQQRLYALLRDCRENLGKYASAVWVARIKRVQRALVVSHYQVEQYSEALRIYNELIAVEGNADGDDMGSYALLRRMLHLHQFAALALFCGNASFANSIYQSIASINVSEAAPCVQNFHECLVDFNTGIWLSFNGKVQDSMKVFCDVATKSREYYCALGASQLMSTDVPTVSNRQLKFVADGCDALALSELCRHAFHQLLVNATTSHVVTMPYEALRGKAPATMLGGTIRTMEDYLRNDPAGLLSSDAFISNGVRLYTLEGGTQMRRLELLNDLIEVFRCDRASAPPIDKIV", "values": [{"measurement": "soluble on expression in E. coli", "value": "not soluble"}]}
